Laboratory results taken from article PMC6987200 (Nature Communications, 2020).
“And” between values parts separate entries of the source, which are not always exact repeats. Equal values may be shown once. Values belong to the binder of their own block, whether it stands above or below them.

Tests used:
[1] = molecular target: T1, aquaporin channel (AqpZ) fused to GFP, P60844; test: native MS; AqpZ-GFP after extraction with OGD batches and IMAC; MS buffer 200 mM NH4OAc, pH 6.8, with detergent; modified Q Exactive, HCD 200 V; details: remark: other sources report otherwise
T1 chain: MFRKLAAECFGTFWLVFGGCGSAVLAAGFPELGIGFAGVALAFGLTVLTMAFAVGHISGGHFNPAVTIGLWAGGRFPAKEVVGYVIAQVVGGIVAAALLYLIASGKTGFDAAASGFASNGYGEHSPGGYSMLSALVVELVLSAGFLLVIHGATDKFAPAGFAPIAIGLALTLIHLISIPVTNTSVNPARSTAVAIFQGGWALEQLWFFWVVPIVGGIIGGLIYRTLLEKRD

[2] = molecular target: the molecule itself; test: native MS; OmpF after detergent exchange from n-octyl-β-D-glucopyranoside to OGDs 1-3 on Superdex 200; MS buffer 200 mM NH4OAc, pH 6.8; HCD 200 V

- stoichiometry N [1]: 4 and 2
B1: aquaporin channel (AqpZ) fused to GFP, P60844 1-231 (natural protein)
chain: T1 chain

B2: OmpF (natural protein, UniProt P02931 23-362, looked up)
chain: AEIYNKDGNKVDLYGKAVGLHYFSKGNGENSYGGNGDMTYARLGFKGETQINSDLTGYGQWEYNFQGNNSEGADAQTGNKTRLAFAGLKYADVGSFDYGRNYGVVYDALGYTDMLPEFGGDTAYSDDFFVGRVGGVATYRNSNFFGLVDGLNFAVQYLGKNERDTARRSNGDGVGGSISYEYEGFGIVGAYGAADRTNLQEAQPLGNGKKAEQWATGLKYDANNIYLAANYGETRNATPITNKFTNTSGFANKTQDVLLVAQYQFDFGLRPSIAYTKSKAKDVEGIGDVDLVNYFEVGATYYFNKNMSTYVDYIINQIDSDNKLGVGSDDTVAVGIVYQF
notes: OmpF, a bacterial outer membrane protein; also called trimeric OmpF; source: detergent exchanged on Superdex 200
- stoichiometry N [2]: 3
